Test results from patent US20220273810A1 (IMCARE BIOTECH, published 2022).

T1: NS-SPIK (Normal Secreted serine protease inhibitor Kazal) (Homo sapiens (Human), UniProt P00995 24-79)
T1 construct: also called Normal Secreted SPIK
T1 sequence: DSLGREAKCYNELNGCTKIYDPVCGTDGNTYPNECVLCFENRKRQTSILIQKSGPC

B1: IM-E2 (antibody, V domains shown)
VH: QSVKESEGGLFKPTDTLTLTCTVSGFSLSAYAISWVRQAPGNGLEWIGAINSGGSAYYANWAKSRSTITRNTNLNTVTLKMTSLTAADTATYFCAREDIYDYGGAFDPWGPGTLVTVST
VL: AYDMTQTPASVEVTVGGTVTIKCQASQGISSYLSWYQQKPGQPPKLLIYAATTLVSGVSSRFKGSGSGTQFTLTISGVECADAATYYCQQDYTTSNVDNTFGGGTEVVVKG
notes: Rabbit monoclonal antibody
B2: IM-B10 (antibody, V domains shown)
VH: QSVKESEGGLFKPTDTLTLTCTVSGFSLSSYGVSWVRQAPGKGLEWIGSIWSGGTTDYASWAKSRSTITRNTNENTVTLKVTSLTAADTATYFCARGGYDYGYASNIWGPGTLVTVSS
VL: AYDMTQTPASVEVAVGGTVTIKCQASESISSYLSWYQQKPGQPPKLLIYRASTLASGVPSRFSGSGSGTEFTLTISDGQCDDAATYYCQQGYSVSNVDNIFGGGTEVVVKG
notes: Rabbit monoclonal antibody; also called IM4-B10
B3: IM-A1 (antibody, V domains shown)
VH: QSVKESEGGLFKPTDTLTLTCTVSGFSLSSNAISWVRQAPGNGLEWIGAIGSSGSTYYASWAKSRSTVTRNTNLNTVTLKMTSLTAADTATYFCARWENIGYTNVRLDLWGQGTLVTVSS
VL: AYDMTQTPASVEVAVGGTVTIKCQASQSISTALAWYQQKPGQPPKLLIYGASTLASGVSSRFKGSGSGTQFTLTISGVECADAATYYCQQGYSTSDVDNAFGGGTEG
notes: Rabbit monoclonal antibody; also called I-A1
B4: IM-G6 (antibody, V domains shown)
VH: QSVKESEGGLFKPTDTLTLTCTVSGFSLSSYPISWVRQAPGNGLEWIGDIYASGSILYASWATGRSTITRNTNLNTVTLKMTSLTAADTATYFCARVSYSGGTDIWGPGTLVTVSS
VL: AYDMTQTPASVEVAVGGTVTIKCQASEDIESYLAWYQQKPGQPPKLLIYRASTLPSGVPSRFKGSGSGTEFTLTISDLECADAATYYCQQDYSSSNVDNTFGGGTEVVVKG
notes: Rabbit monoclonal antibody
B5: IM-A6 (antibody, V domains shown)
VH: QSVKESEGGLFKPTDTLTLTCTVSGFSLSSYAISWVRQAPGNGLEWIGRINSGGATDYASWARSRSTITRDTNLNTVTLQMTSLTAADTATYFCAKEEYSYGGAYGMWGPGTLVTVSS
VL: AYDMTQTPASVSAAVGGTVTIKCQASESISTYLSWLQQKPGQPPKLLIYKASTLASGVPSRFKGSGSGTEFTLTISGVQCDDAATYYCQQDYTISNVGNVFGGGTEVVVKG
notes: Rabbit monoclonal antibody; also called I-A6
B6: IM-G7 (antibody, V domains shown)
VH: QSVKESEGGLFKPTDTLTLTCTVSGFSLSSNVISWVRQAPGKGLEWIGDIYVSGNTDYASWAKSRSTITRNANLNTVTLKMTSLTAADTATYFCARYDMSSDAFDPWGPGTLVTVSS
VL: AYDMTQTPASVEVAVGGTVTIKCQASQNIGSYLSWYQHKPGQRPRLLMYRASTLASGVSSRFKGSGSGTEFTLTISGVQCDNAATYYCQQGYTNSGVDNTFGGGTEVVVKG
notes: Rabbit monoclonal antibody
B7: IM-D3 (antibody, V domains shown)
VH: QSVKESEGGLFKPTDTLTLTCTVSGFSLSSYAIGWVRQAPGNGLEWIGTIVTSGIPYYANWAKSRSTITRNTNLNTVTLKMTSLTAADTATYFCARNLDPAYSTTRLDLWGQGTLVTVSS
VL: AYDMTQTPASVSEPVRGTVTIKCQASQSISTALAWYQQKPGQPPKLLIYAASYLASGVPSRFSGSGSGTEFTLTISDLECADAATYYCHQGYSASNVDNTFGGGTEGGVKG
notes: Rabbit monoclonal antibody
B8: IM-C6 (antibody, V domains shown)
VH: QSVKESEGGLFKPTDALTLTCTVSGFSLSSYAISWVRQAPGSGLEWIGAINTYGGTYYASWAKSRSTITRNTNENTVTLKMTSLTAADTATYFCARDFDSDAYTSASGGMDPWGPGTLVTVSS
VL: AYDMTQTPASVEVAVGGTVTIKCQASQSINNYLSWYQQIPGQPPKLLIYRASTLASGVSSRFKGSGSGTQFTLTISGVQCADAATYYCQQGYTSNVDNVFGGGTEVVVKG
notes: Rabbit monoclonal antibody
B9: IM-D5 (antibody, V domains shown)
VH: QSVKESEGGLFKPTDTLTLTCTVSGFSLSSYAISWVRQAPGNGLEWIGAIGKSGSAYYASWAKSRSTITRNTNLNTVSLKMTSLTAADTATYFCARWDSVGWTDARLDLWGQGTLVTVSS
VL: AYDMTQTPASVEVAVGGTVTIKCQASQSISTALAWYQQKPGQRPKLLIYGASKLASGVSSRFSGSGSGTEFTLTISGVECADAATYYCQQGYETSNVDNAFGGGTEVVVKG
notes: Rabbit monoclonal antibody
B10: IM-F5 (antibody, V domains shown)
VH: QSVKESEGGLFKPTDTLTLTCTVSGFSLSIYGVSWVRQAPGNGLEWIGIIYASGSADYASWAKSRSTITRNTNLNTVTLKMTSLTAADTATYFCAREDDTYGYTSSIWGPGTLVTVSS
VL: AYDMTQTPASVSAAVGGTVTIKCQASQSISSYLNWYQQKPGQPPKRLIYRASTLASGVSSRFKGSGSGTQFTLTISGVECADAATYYCQQDYSSNNIDNTFGGGTEVVVKG
notes: Rabbit monoclonal antibody

The binders below were run against AS-SPIK (Abnormal Secreted serine protease inhibitor Kazal) (Homo sapiens (Human)) (UniProt P00995) (assay: sandwich ELISA, S2-3 medium, complex captured on polyclonal anti-SPIK plate, anti-rabbit-HRP/TMB).

OD [OD]	Binder
1.39	B1

The binders below were run against AS-SPIK (Abnormal Secreted serine protease inhibitor Kazal) (Homo sapiens (Human)) (UniProt P00995) (assay: sandwich ELISA, HCC patient serum (serum AS-SPIK), complex captured on polyclonal anti-SPIK plate, anti-rabbit-HRP/TMB).

OD [OD]	Binder
1.48	B1

These binders were tested against T1, NS-SPIK (Normal Secreted serine …) (assay: ELISA on a plate immobilised with NS-SPIK from pancreatic cells, OD450nm; antibody concentration not given).
Experimental: Ten monoclonal antibodies described here were generated from rabbit. Briefly, rabbit were immunized with the recombinant AS-SPIK which contain different subsets of 23 extra amino acids (SEQ ID NO: 81). The blood was tested after three or four time imbursements by ELISA. Briefly, blood from immunized rabbits were reacted with plate coated with recombinant AS-SPIK. After washing, the color was developed by incubation of the plate with an anti-rabbit antibody labeled with HRP (horseradish peroxidase), and the optical density was measured after reaction with substrate TMB. The rabbit which is positive in test (produced antibody) was sacrificed. The monoclonal antibody was then established and further screened with ELISA using the plates immobilized with partially purified AS-SPIK from S2-3 cells, a cell line expresses high amount of AS-SPIK by integrated entire SPIK gene, Lu et. al Tumor-associated protein SPIK TATI suppresses serine protease dependent cell apoptosis, Apoptosis, 2008 13(4), 483-494 and NS—SPIK from pancreatic cells. Finally, 10 monoclonal antibodies which strongly bind AS-SPIK but not NS-SPIK were selected.

binding result	Binder
no binding	B2
no binding	B1
no binding	B3
no binding	B4
no binding	B5
no binding	B6
no binding	B7
no binding	B8
no binding	B9
no binding	B10
